Test results published in the supplement of paper PMC9170038.

System: MS2 coat protein
Assay: apparent KD of MS2 coat protein; higher = weaker reporter binding
Conditions: Eterna round: R107
Procedure, shortened: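 SNAP-549-labelled MS2 coat protein was titrated onto designed RNA switches that had been transcribed on-chip from Illumina sequencing clusters. Amounts doubled from 0.7 or 1.5 nM to 3 µM in 100 mM Tris-HCl pH 7.5, 80 mM KCl, 4 mM MgCl2, with constant ligand or without. Apparent KD is the median per design of normalised cluster binding-curve fits.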

[1] = input ligand: theophylline 20 uM
[2] = input ligand: theophylline 2 mM
[3] = input ligand: tryptophan 2.4 mM

Sequence | apparent KD of MS2 coat protein (input ligand: arginine 13.2 mM) [nM] | apparent KD of MS2 coat protein (input ligand: none) [nM] | apparent KD of MS2 coat protein [1] [nM] | apparent KD of MS2 coat protein [2] [nM] | apparent KD of MS2 coat protein [3] [nM]
GCCUAGCAGCGAAGGAGCGAGGUAAAUAAAUAAAUAAAUAACAAGAGGAUCACCCUUGUUCCUCAGGUAGGUCGCGCUGCUAGGC [SSAB Alternative Aptamer #1 NP+V+V2] | 16 | 17.5 | 22.7 | 18.9 | 17.9
GCCUAGCAUCGAAGGAGCGGGCAUUACGCGCGAAAGCGCGAUACUUGAGGAACACCCAAGUCCCAGGUAGGUCGCGAUGCUAGGC [SSAB Alternative Aptamer #3 NP+V+V2] | 31.4 | 70.9 | 127 | 94.9 | 83.5
GCGACACUCACGGCCGCCACUGAUUAGCCCAGUAUGGAGCCCACACAUGAGGAUCACCCAUGUCACAGGACCGGGUGGGUCUAUU [theeternabot_sameState_MS2_Trp_B_23] | 22.8 | – | 42.1 | 25.5 | –
GCGACCCUGAGAUCCUGCGUAACGUGAACACGAGGACCGGUACGGCCGCCACUCGAGAGAACAUGAGGAUCACCCAUGUCUGAGC [e-trypA-0(N)] | 16.2 | – | 28.4 | 26.4 | –
GCUAGGUCUACGGCCGCCACUAGACGUGGGUAAGACAUGAGGAUCACCCAUGUACUACGGGCGCUUAGGACCGGGUAGACCUAGC [SSTB NP+V+V2 #17 +-Same Structure] | 116 | – | 187 | 285 | –
GCUGCCAUACGAAGGAGCGCUGUUGCAAUGAGGCGAACAUGAGGAUCACCCAUGUGGCAGCAGCAGGUAGGUCGCGUAUGGCAGC [EAB #12] | 33.4 | 42.5 | 53.6 | 52.7 | 44.2
GCUGUAAGUGCAGAUACCAGCAGGUGAUAUUUCAUAUGACAUGAGGAUCACCCAUGUAACUGCCCUUGGCAGCUGCACUUACAGC [SSTHB #9] | 172 | – | 193 | – | 523
GCUGUACCAUGAAGGAGCGUCACGGAGUGCGAAUACACAUGAGGAUCACCCAUGUUUUUAUGGCAGGUAGGUCGCAUGGUACAGC [#02 Same State - Arginine B] | 22.8 | 22.3 | 33.3 | 28.4 | 22.9
GGAACAUGAGGAUCACCCAUGUAAUCACGACGAGGACCGGUACGGCCGCCACUCGUAUUCACGCAAGGUAGAGGAAUACGUAGGC [theeternabot_exclusion_MS2_Trp_A_2] | 15.4 | – | 17.6 | 14.3 | –
